{"source": "paper PMC11018115", "about": "“The EIN3 transcription factor GmEIL1 improves soybean resistance to Phytophthora sojae”", "target": "T1, GmEIL1 (Glycine max (cv. Suinong 10), UniProt A0A0R4J4Z8 1-610)", "T1 sequence": "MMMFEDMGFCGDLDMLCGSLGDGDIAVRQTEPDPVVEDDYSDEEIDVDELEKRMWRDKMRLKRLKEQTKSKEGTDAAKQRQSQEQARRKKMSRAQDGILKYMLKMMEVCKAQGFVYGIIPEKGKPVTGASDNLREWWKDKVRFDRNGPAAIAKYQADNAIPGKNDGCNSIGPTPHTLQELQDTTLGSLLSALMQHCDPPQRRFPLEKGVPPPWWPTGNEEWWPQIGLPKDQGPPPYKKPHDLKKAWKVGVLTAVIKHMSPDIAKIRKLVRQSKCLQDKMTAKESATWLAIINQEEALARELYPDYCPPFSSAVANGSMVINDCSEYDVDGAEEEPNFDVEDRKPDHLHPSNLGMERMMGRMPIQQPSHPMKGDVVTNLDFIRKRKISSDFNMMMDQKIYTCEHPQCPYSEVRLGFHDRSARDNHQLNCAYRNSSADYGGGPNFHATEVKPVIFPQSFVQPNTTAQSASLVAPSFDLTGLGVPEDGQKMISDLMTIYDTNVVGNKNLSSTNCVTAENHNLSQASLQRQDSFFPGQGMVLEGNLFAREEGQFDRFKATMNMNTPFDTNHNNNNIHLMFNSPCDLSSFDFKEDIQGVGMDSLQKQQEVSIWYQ", "test": "EMSA; EMSA after Garner and Revzin (1981), chemiluminescent detection; buffer, salt, pH and temperature not stated", "details": "protein: recombinant; chain copies: 2; label: digoxigenin-ddUTP (Methods, legend); text also says biotin"}
{"binder": "EBS probe (dsDNA) DNA 1: GTTGTTTGGGATTCAAGGGGCATGTATCTTGAATCC DNA 2: GGATTCAAGATACATGCCCCTTGAATCCCAAACAAC", "values": [{"measurement": "binding result", "result": "binds"}]}
{"binder": "mEBS probe (dsDNA) DNA 1: GTTGTTTGGGATTCAAGGGGCCCCCCTCTTGAATCC DNA 2: GGATTCAAGAGGGGGGCCCCTTGAATCCCAAACAAC", "values": [{"measurement": "binding result", "result": "no binding"}]}
